Measured values: paper PMC4010427, “Structural and Functional Similarity of Amphibian Constitutive Androstane Receptor with Mammalian Pregnane X Receptor” (PLoS ONE, 2014)

Key:
[1] = target: T1, xlCARα (Xenopus laevis, UniProt A0A1L8FCY0); assay: CARLA: ligand-dependent pull-down of […]-labelled receptor by GST-SRC-1 RID; conditions: pH 8.0, 4 °C overnight; agonist; indirect coactivator-dependent binding assay
T1 construct: gene nr1i3.L; full-length; 35S-Met labelled by in vitro transcription/translation (CARLA, with human GST-SRC-1 RID 583-783 as read-out) or expressed in HepG2 cells; LBD residues 145-423
T1 sequence (A0A1L8FCY0 19-441): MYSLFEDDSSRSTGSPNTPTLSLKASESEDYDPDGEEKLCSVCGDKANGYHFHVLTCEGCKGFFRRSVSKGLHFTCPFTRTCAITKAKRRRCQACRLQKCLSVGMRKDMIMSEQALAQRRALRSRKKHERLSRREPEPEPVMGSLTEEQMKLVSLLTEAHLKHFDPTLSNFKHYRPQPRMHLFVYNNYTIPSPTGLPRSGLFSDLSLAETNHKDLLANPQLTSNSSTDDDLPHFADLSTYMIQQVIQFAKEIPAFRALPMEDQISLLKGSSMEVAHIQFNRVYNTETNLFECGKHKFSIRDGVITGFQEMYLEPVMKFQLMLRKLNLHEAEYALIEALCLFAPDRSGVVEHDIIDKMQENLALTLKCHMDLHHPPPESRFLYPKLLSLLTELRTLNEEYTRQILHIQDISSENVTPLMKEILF

[2] = target: GAL4-DBD/RXRα-LBD fusion protein (human retinoid X receptor α, amino acids 226–462) (UniProt P19793); assay: mammalian two-hybrid assay; conditions: COS7 cells; GAL4-dependent pGL3G5 reporter; no ligand; n = 6; parent: est. 40; read off a plot
Chain of GAL4-DBD/RXRα-LBD fusion protein (human retinoid X receptor α, amino acids 226–462) (P19793 226-462): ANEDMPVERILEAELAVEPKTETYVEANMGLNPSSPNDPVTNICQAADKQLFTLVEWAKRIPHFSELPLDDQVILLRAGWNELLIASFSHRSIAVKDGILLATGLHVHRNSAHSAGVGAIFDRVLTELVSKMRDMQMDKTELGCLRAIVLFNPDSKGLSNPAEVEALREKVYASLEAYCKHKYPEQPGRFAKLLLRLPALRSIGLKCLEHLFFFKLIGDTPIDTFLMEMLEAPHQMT

[3] = target: GAL4-DBD/SRC1-RID fusion protein (human coactivator SRC-1, receptor interaction domain, amino acids 583–783) (UniProt Q15788); assay: mammalian two-hybrid assay; conditions: COS7 cells; pM-SRC-1 (black bars); no ligand; n = 9; empty pVP16-AD with pM-SRC-1 est. 0.57 (red line); parent: est. 0.49; read off a plot
Chain of GAL4-DBD/SRC1-RID fusion protein (human coactivator SRC-1, receptor interaction domain, amino acids 583–783) (Q15788 583-783): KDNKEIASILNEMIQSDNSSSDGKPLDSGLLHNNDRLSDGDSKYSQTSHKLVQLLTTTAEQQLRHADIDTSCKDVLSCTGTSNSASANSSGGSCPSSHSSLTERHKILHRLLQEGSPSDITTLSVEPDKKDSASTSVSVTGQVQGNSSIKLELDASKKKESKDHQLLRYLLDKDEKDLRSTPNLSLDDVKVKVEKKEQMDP

[4] = target: GAL4-DBD/PGC-1α-RID fusion protein (human PGC-1α, receptor interaction domain, amino acids 88-213) (UniProt Q9UBK2); assay: mammalian two-hybrid assay; conditions: COS7 cells; pM-PGC1a (black bars); no ligand; n = 9; empty pVP16-AD with pM-PGC1a est. 3.3 (red line); parent: est. 3.6; read off a plot
Chain of GAL4-DBD/PGC-1α-RID fusion protein (human PGC-1α, receptor interaction domain, amino acids 88-213) (Q9UBK2 88-213): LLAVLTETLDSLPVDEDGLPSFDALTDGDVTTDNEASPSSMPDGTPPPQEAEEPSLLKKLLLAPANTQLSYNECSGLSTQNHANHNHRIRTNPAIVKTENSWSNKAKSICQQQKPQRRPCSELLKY

[5] = target: GST-tagged SRC-1 RID protein (recombinant human SRC-1, amino acids 583–783) (UniProt Q15788); assay: CARLA; conditions: n = 3, read off a plot; for response: absence of ligand (DMSO only), parent: est. 0.10; for other: fold induction (fold over DMSO only (=1)): 100 µM pregnanedione (log M = -4.0), parent: est. 74
Chain of GST-tagged SRC-1 RID protein (recombinant human SRC-1, amino acids 583–783) (Q15788 583-783): as the sequence (Q15788 583-783) above

Row | Compound | response (fold over empty vector pVP16-AD (=1)) [2] | response [3] [rel pM/pVP16] | response [4] [rel pM/pVP16] | response [5] | other: fold induction (fold over DMSO only (=1)) [5] | fold induction of SRC-1 interaction [1]
1 | CC(=O)[C@H]1CC[C@H]2[C@@H]3CC[C@@H]4CC(=O)CC[C@]4(C)[C@H]3CC[C@]12C [5β-pregnane-3,20-dione] | – | – | – | – | – | suggests that xlCARα binds pregnanedione with higher affinity than hsCAR
2 | VP16-AD/xlCARα-LBD fusion protein, wild type (Xenopus laevis constitutive androstane receptor α, amino acids 145–423) Met272Val | 55 | 0.71 | 5.5 | – | – | –
3 | VP16-AD/xlCARα-LBD fusion protein, wild type (Xenopus laevis constitutive androstane receptor α, amino acids 145–423) Met272Val; Met316Phe | 59 | 0.77 | 5.5 | – | – | –
4 | VP16-AD/xlCARα-LBD fusion protein, wild type (Xenopus laevis constitutive androstane receptor α, amino acids 145–423) Thr305Val | 110 | 0.99 | 5.7 | – | – | –
5 | full-length Xenopus laevis CARα, wild type, 35S-labelled His295Leu | – | – | – | 0.11 % of input | – | –
6 | full-length Xenopus laevis CARα, wild type, 35S-labelled Leu237Ile | – | – | – | 0.05 % of input | 28 | –
7 | full-length Xenopus laevis CARα, wild type, 35S-labelled Met272Val | – | – | – | 0.17 % of input | 16 | –
8 | full-length Xenopus laevis CARα, wild type, 35S-labelled Phe297Tyr | – | – | – | 0.11 % of input | – | –
9 | full-length Xenopus laevis CARα, wild type, 35S-labelled Ser238Asn | – | – | – | 0.11 % of input | – | –
10 | full-length Xenopus laevis CARα, wild type, 35S-labelled Tyr311Phe | – | – | – | 0.06 % of input | – | –

Second part, led by results:

Row | response (fold over empty vector pVP16-AD (=1)) [2] | response [3] [rel pM/pVP16] | response [4] [rel pM/pVP16] | response [5] | other: fold induction (fold over DMSO only (=1)) [5] | Compound | fold induction of SRC-1 interaction [1]
11 | 47 | 0.45 | 2.8 | – | – | VP16-AD/xlCARα-LBD fusion protein, wild type (Xenopus laevis constitutive androstane receptor α, amino acids 145–423) His295Leu | –
12 | 56 | 0.8 | 5 | – | – | VP16-AD/xlCARα-LBD fusion protein, wild type (Xenopus laevis constitutive androstane receptor α, amino acids 145–423) Met316Phe | –
13 | 98 | 0.61 | 4.2 | – | – | VP16-AD/xlCARα-LBD fusion protein, wild type (Xenopus laevis constitutive androstane receptor α, amino acids 145–423) Tyr311Phe | –
14 | 41 | 0.38 | 2.8 | – | – | VP16-AD/xlCARα-LBD fusion protein, wild type (Xenopus laevis constitutive androstane receptor α, amino acids 145–423) Val315Ile | –
15 | – | – | – | 0.05 % of input | 2 | full-length Xenopus laevis CARα, wild type, 35S-labelled Phe279Leu | –
16 | – | – | – | 0.09 % of input | 10 | full-length Xenopus laevis CARα, wild type, 35S-labelled Val315Ile | –
